The values that follow come from patent US20230416321A1.

masked TGF-β1 construct, IL-2 - IgG scaffold - TβRII(Δ25, D118A, E55A) mask - TGF-β1, sequence (P01137 other isoform, or with tags, fused parts or gaps, stated change not applied): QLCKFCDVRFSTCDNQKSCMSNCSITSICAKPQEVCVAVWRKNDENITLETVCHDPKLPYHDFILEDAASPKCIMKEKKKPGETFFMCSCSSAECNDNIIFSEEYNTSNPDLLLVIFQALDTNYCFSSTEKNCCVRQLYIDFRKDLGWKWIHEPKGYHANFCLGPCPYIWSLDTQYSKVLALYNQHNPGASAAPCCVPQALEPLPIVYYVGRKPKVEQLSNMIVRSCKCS
masked TGF-β1 construct, IL-2 - IgG scaffold - TβRII(Δ25, D118A) mask - TGF-β1, sequence (P01137 other isoform, or with tags, fused parts or gaps, stated change not applied): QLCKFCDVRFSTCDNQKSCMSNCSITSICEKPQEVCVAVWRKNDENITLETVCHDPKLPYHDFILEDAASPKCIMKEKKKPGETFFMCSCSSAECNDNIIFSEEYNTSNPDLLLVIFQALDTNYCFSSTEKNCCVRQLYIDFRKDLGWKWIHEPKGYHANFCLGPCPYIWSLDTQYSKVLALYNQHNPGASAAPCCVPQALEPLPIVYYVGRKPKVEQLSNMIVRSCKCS
masked TGF-β1 construct, IL-2 - IgG scaffold - TβRII(Δ25, D118A, S52L) mask - TGF-β1, sequence (P01137 other isoform, or with tags, fused parts or gaps, stated change not applied): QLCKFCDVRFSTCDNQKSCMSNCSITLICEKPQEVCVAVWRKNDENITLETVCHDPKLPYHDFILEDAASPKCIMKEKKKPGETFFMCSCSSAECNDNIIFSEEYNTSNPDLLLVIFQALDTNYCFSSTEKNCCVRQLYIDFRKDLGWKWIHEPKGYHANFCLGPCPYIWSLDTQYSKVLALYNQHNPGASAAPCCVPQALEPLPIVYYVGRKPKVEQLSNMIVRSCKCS
masked TGF-β1 construct, IL-2 - IgG scaffold - TβRII(Δ25, D118A, D32N) mask - TGF-β1, sequence (P01137 other isoform, or with tags, fused parts or gaps, stated change not applied): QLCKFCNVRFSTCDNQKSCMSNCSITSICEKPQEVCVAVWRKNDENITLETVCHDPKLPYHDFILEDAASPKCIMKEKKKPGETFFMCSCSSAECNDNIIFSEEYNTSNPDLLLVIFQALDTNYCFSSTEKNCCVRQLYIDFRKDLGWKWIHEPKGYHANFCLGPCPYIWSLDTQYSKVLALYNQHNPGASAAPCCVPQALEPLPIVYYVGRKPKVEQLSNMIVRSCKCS

The target of the test is TβRII-IgG Fc fusion protein (human) (UniProt P37173). The experiment in a line: capture assay on plate-immobilised TβRII-Fc, detection biotin anti-IL-2 / streptavidin-HRP, TMB 450 nm; Kd from the capture curve.
As usually defined, the Kd is the concentration at which binding is half-saturated. Higher therefore signals a looser complex. For “masked TGF-β1 construct, IL-2 - IgG scaffold - TβRII(Δ25, D118A) mask - TGF-β1 (from UniProt P01137 279-390) (Fc fusion)”, the Kd is 1.51 µM.

As to “masked TGF-β1 construct, IL-2 - IgG scaffold - TβRII(Δ25, D118A, D32N) mask - TGF-β1 (from UniProt P01137 279-390) (Fc fusion)”, the Kd came to 5.9 µM.

Consider “masked TGF-β1 construct, IL-2 - IgG scaffold - TβRII(Δ25, D118A, E55A) mask - TGF-β1 (from UniProt P01137 279-390) (Fc fusion)”, for which the Kd is 2.99 µM.

Consider “masked TGF-β1 construct, IL-2 - IgG scaffold - TβRII(Δ25, D118A, S52L) mask - TGF-β1 (from UniProt P01137 279-390) (Fc fusion)”, for which the Kd is 154 µM.
